Test results taken from patent publication US12377176B2, “Cancer diagnostic imaging agents” (Technische Universität München, priority 2019, dated 2025).
Values joined by “and” are separate entries in the source; they are usually repeats but may differ in a detail not shown here. Equal values may be shown once.

Tests used:
HSA = target: T1, HSA (Homo sapiens, UniProt P02768); experiment: HSA binding on Chiralpak HSA column; format: in vitro ADME; conditions: Chiralpak HSA column (50 × 3 mm, 5 μm), (n = 6)
T1 construct: purchased H13H-2433
Protocol: The mobile phase (A: NH4OAc, 50 mM in water, pH 7 and B: isopropanol) was freshly prepared for each experiment and only used for one day. The column was kept at room temperature and each run was stopped after detection of the signal to reduce the acquisition time. All substances were dissolved in a 0.5 mg/ml concentration in 50% 2-propanol and 50% 50 mM pH 6.9 ammonium acetate buffer. […] All nine reference substances were injected consecutively to establish a non-linear regression with Origin Pro 2016G.

[1] = Preclinical dosimetry in SCID mice, extrapolated to 70-kg Standard Adult (OLINDA/EXM 1.0); format: in vivo; conditions: extrapolated from mice
Protocol: 3-5 mice were injected per timepoint with a mean 25.6±3.6 MBq of 18F-rhPSMA-7 and 28.5±4.8 MBq of 18F-rhPSMA-7.3, respectively. Mice, severe combined immunodeficiency (SCID) were used for the experiments.
Urine, blood, heart, lung, spleen, pancreas, liver, stomach (emptied), small intestine (emptied), large intestine (emptied), kidneys, bladder, testis, fat, muscle (partial, femoral), femur, tail and brain. Urine was collected with a pipette in the CO2 gas chamber. In case of missing urination in the chamber the bladder was aspirated with an insulin syringe. Blood was withdrawn instantly after sacrifice with an insulin syringe from the heart. All other tissues and organs were dissected and transferred directly in plastic containers.
The counting rates of measurement samples were automatically corrected for decay. The radioactivity distribution ratios (unit: percentage of the injected dose (% ID) in the measurement samples were determined using the equation below. The sum of the counting rates from all measurement samples obtained from one mouse was designated as the counting rate for administrated radioactivity.
For consistency of statistical calculations for each radiotracer the same number of time-points for ^18F-rhPSMA-7 and ^18F-rhPSMA-7.3 was used. Therefore, for ^18F-rhPSMA-7 the 10 min and 20 min time points were combined creating a 15 min endpoint.
In brief, to calculate a human dosimetry from the biodistribution in the mice, an extrapolation was necessary to account for the differences between the animals and humans. Normal-organ radiation doses were estimated for the 70-kg Standard Adult anatomic model using time-depending organ activity concentrations (in percent of the injected dose per gram, % ID/g) and total-body activities measured in the biodistribution studies in mice.
Tissue activity concentrations in mice were converted to tissue fractional activities in the 70-kg Standard Adult using the relative fractional organ masses in the Standard Adult and the “standard” 25-gramm mouse. Time-dependent total-body activity was fit to an exponential function and the difference between the injected activity and the total-body activity was assumed to be excreted to the urine because activity concentrations in the liver and GI tracer were low at all time points studied.
Organ residence time was calculated by numerical integration using the trapezoidal rule and the rest-of-body ^18F residence times was calculated as the difference between the total-body residence time and the sum of the organ and urine residence times. The bladder contents residence time was estimated using the dynamic voiding model in the OLINDA/EXM 1.0 dosimetry software. Finally, the Standard Adult mean organ dose equivalents (in mSv/MBq) and effective dose (also in mSv/MBq) were then calculated using OLINDA/EXM 1.0.

[2] = Human biodistribution and uptake in tumor lesions, PET/CT SUV; format: in vivo; conditions: for ratio SUVmax to background, max / ratio SUVmax to background, mean / ratio SUVmax to background, min / ratio SUVmean to background, max / ratio SUVmean to background, mean / ratio SUVmean to background, min: human PET/CT, background gluteal muscle; for SUVmax mean, bladder / SUVmax mean, bloodpool / SUVmax mean, bone / SUVmax mean, duodenum / SUVmax mean, kidney / SUVmax mean, liver / SUVmax mean, lungs / SUVmax mean, pancreas / SUVmax mean, parotic gland / SUVmax mean, spleen / SUVmax mean, submandibular gland / SUVmean mean, duodenum / SUVmean mean, kidney / SUVmean mean, liver / SUVmean mean, lungs / SUVmean mean, pancreas / SUVmean mean, parotic gland / SUVmean mean, spleen / SUVmean mean, submandibular gland / SUVmax mean, background / SUVmean mean, background / SUVmean mean, bladder / SUVmean mean, bloodpool / SUVmean mean, bone / SUVmax mean, tumor / SUVmean mean, tumor: patients, PET/CT; for SUVmax mean, background / SUVmean mean, background: gluteal muscle; for SUVmean mean, bone: non-diseased bone
Protocol: Human biodistribution was estimated by analysing clinical ^18F-rhPSMA-7- and ^18F-rhPSMA-7.3-PET/CT exams in 47 and 32 patients, respectively.
The mean and maximum standardized uptake values (SUVmean/SUVmax) were determined for background (gluteal muscle), normal organs (salivary glands, blood pool, lung, liver, spleen, pancreas, duodenum, kidney, bladder, bone) and three representative tumor lesions. Tumor uptake was analyzed in 89 lesions (26 primary tumors/local recurrences, 23 bone, 38 lymph node and 2 visceral metastases) and 63 lesions (14 primary tumors/local recurrences, 30 bone, 18 lymph node and 1 visceral metastases) for ^18F-rhPSMA-7 and ^18F-rhPSMA-7.3, respectively.
Organ-background and Tumor-background ratios were calculated.

T1 sequence (P02768 25-609): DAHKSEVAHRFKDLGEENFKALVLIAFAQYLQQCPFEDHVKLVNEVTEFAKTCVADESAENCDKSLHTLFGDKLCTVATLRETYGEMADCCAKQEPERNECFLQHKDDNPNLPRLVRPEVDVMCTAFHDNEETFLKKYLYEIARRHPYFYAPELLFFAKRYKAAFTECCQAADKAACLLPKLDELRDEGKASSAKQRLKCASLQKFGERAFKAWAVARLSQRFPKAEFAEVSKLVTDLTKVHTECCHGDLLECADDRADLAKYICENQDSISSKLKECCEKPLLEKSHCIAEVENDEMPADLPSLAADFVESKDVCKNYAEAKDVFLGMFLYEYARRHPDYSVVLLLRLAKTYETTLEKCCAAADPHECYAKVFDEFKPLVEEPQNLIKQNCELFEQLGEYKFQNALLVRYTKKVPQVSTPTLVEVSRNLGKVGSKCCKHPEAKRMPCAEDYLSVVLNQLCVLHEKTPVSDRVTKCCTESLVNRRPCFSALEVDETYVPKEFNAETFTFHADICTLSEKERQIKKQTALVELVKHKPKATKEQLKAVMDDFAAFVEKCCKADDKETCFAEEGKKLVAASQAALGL

With `CC(C)(C)[Si](F)(c1ccc(C(=O)NC[C@@H](NC(=O)CC[C@@H](C(=O)O)N2CCN(CC(=O)O)CCN(CC(=O)O)CCN(CC(=O)O)CC2)C(=O)N[C@H](CCCCNC(=O)CCC(=O)NCCC[C@@H](NC(=O)CC[C@H](NC(=O)N[C@@H](CCC(=O)O)C(=O)O)C(=O)O)C(=O)O)C(=O)O)cc1)C(C)(C)C` [rhPSMA7.3, [^19F][^natGa]D-Dap-S-DOTAGA-rhPSMA7, metal not drawn] the “HSA Binding” value (HSA) was 96.9%, the “Effective Dose” value ([1]; 1.0 h bladder voiding interval) was 1.28E−02 mSv/MBq and the “Effective Dose Equivalent” value ([1]; 1.0 h bladder voiding interval) was 1.85E−02 mSv/MBq. The “Effective Dose” value ([1]; […] bladder voiding interval) was 2.17E−02 mSv/MBq, the “Effective Dose Equivalent” value ([1]; […] bladder voiding interval) was 2.94E−02 mSv/MBq and the “ratio SUVmax to background, max” value ([2]; bladder) was 5.5. For the same molecule, the “ratio SUVmax to background, mean” value ([2]; bladder) was 3.1, the “ratio SUVmax to background, min” value ([2]; bladder) was 0.9 and the “ratio SUVmean to background, max” value ([2]; bladder) was 6.8. For the same molecule, the “ratio SUVmean to background, mean” value ([2]; bladder) was 3.1, the “ratio SUVmean to background, min” value ([2]; bladder) was 0.9 and the “ratio SUVmax to background, max” value ([2]; bloodpool) was 5.2. The “ratio SUVmax to background, mean” value ([2]; bloodpool) was 2.8, the “ratio SUVmax to background, min” value ([2]; bloodpool) was 1.5 and the “ratio SUVmean to background, max” value ([2]; bloodpool) was 4.9. For the same molecule, the “ratio SUVmean to background, mean” value ([2]; bloodpool) was 2.9, the “ratio SUVmean to background, min” value ([2]; bloodpool) was 1.7 and the “ratio SUVmax to background, max” value ([2]; bone) was 3.2. The “ratio SUVmax to background, mean” value ([2]; bone) was 2.0, the “ratio SUVmax to background, min” value ([2]; bone) was 1.1 and the “ratio SUVmean to background, max” value ([2]; bone) was 3.6. For the same molecule, the “ratio SUVmean to background, mean” value ([2]; bone) was 2.1, the “ratio SUVmean to background, min” value ([2]; bone) was 1.0 and the “ratio SUVmax to background, max” value ([2]; duodenum) was 34.3. The “ratio SUVmax to background, mean” value ([2]; duodenum) was 16.2, the “ratio SUVmax to background, min” value ([2]; duodenum) was 6.9 and the “ratio SUVmean to background, max” value ([2]; duodenum) was 39.4. The “ratio SUVmean to background, mean” value ([2]; duodenum) was 17.1, the “ratio SUVmean to background, min” value ([2]; duodenum) was 4.7 and the “ratio SUVmax to background, max” value ([2]; kidney) was 93.0. For the same molecule, the “ratio SUVmax to background, mean” value ([2]; kidney) was 51.8, the “ratio SUVmax to background, min” value ([2]; kidney) was 25.7 and the “ratio SUVmean to background, max” value ([2]; kidney) was 95.5. For the same molecule, the “ratio SUVmean to background, mean” value ([2]; kidney) was 55.6, the “ratio SUVmean to background, min” value ([2]; kidney) was 27.6 and the “ratio SUVmax to background, max” value ([2]; liver) was 19.0. For the same molecule, the “ratio SUVmax to background, mean” value ([2]; liver) was 9.7, the “ratio SUVmax to background, min” value ([2]; liver) was 4.0 and the “ratio SUVmean to background, max” value ([2]; liver) was 20.7. The “ratio SUVmean to background, mean” value ([2]; liver) was 11.4, the “ratio SUVmean to background, min” value ([2]; liver) was 4.1 and the “ratio SUVmax to background, max” value ([2]; lungs) was 1.8. For the same molecule, the “ratio SUVmax to background, mean” value ([2]; lungs) was 1.0, the “ratio SUVmax to background, min” value ([2]; lungs) was 0.6 and the “ratio SUVmean to background, max” value ([2]; lungs) was 1.8. The “ratio SUVmean to background, mean” value ([2]; lungs) was 1.0, the “ratio SUVmean to background, min” value ([2]; lungs) was 0.6 and the “ratio SUVmax to background, max” value ([2]; pancreas) was 6.9. The “ratio SUVmax to background, mean” value ([2]; pancreas) was 4.1, the “ratio SUVmax to background, min” value ([2]; pancreas) was 2.2 and the “ratio SUVmean to background, max” value ([2]; pancreas) was 7.8. The “ratio SUVmean to background, mean” value ([2]; pancreas) was 4.4, the “ratio SUVmean to background, min” value ([2]; pancreas) was 2.3 and the “ratio SUVmax to background, max” value ([2]; parotid gland) was 46.2. For the same molecule, the “ratio SUVmax to background, mean” value ([2]; parotid gland) was 24.7, the “ratio SUVmax to background, min” value ([2]; parotid gland) was 11.9 and the “ratio SUVmean to background, max” value ([2]; parotid gland) was 44.6. The “ratio SUVmean to background, mean” value ([2]; parotid gland) was 25.2, the “ratio SUVmean to background, min” value ([2]; parotid gland) was 12.4 and the “SUVmax mean, bladder” value [2] was 3.1. The “SUVmax mean, bloodpool” value [2] was 2.8, the “SUVmax mean, bone” value [2] was 2.1 and the “SUVmax mean, duodenum” value [2] was 16.4. The “SUVmax mean, kidney” value [2] was 51.9, the “SUVmax mean, liver” value [2] was 9.7 and the “SUVmax mean, lungs” value [2] was 1.1. For the same molecule, the “SUVmax mean, pancreas” value [2] was 4.2, the “SUVmax mean, parotic gland” value [2] was 24.6 and the “SUVmax mean, spleen” value [2] was 11.4. For the same molecule, the “SUVmax mean, submandibular gland” value [2] was 28.4, the “SUVmean mean, duodenum” value [2] was 11.0 and the “SUVmean mean, kidney” value [2] was 35.5. The “SUVmean mean, liver” value [2] was 7.3, the “SUVmean mean, lungs” value [2] was 0.7 and the “SUVmean mean, pancreas” value [2] was 2.8. For the same molecule, the “SUVmean mean, parotic gland” value [2] was 16.0, the “SUVmean mean, spleen” value [2] was 8.5 and the “SUVmean mean, submandibular gland” value [2] was 19.6. The “SUVmax mean, background” value [2] was 1.0, the “SUVmean mean, background” value [2] was 0.7 and the “SUVmean mean, bladder” value ([2]; listed as 18F-rhPSMA-7.3) was 2.0 and 2.0±0.8. For the same molecule, the “SUVmean mean, bloodpool” value ([2]; listed as 18F-rhPSMA-7.3) was 1.9 and 1.8, the “SUVmean mean, bone” value [2] was 1.3 and the “SUVmax mean, tumor” value ([2]; tumor lesions) was 44.0. The “SUVmean mean, tumor” value ([2]; tumor lesions, listed as 18F-rhPSMA-7.3) was 32.5±42.7 and 32.5, the “ratio SUVmax to background, max” value ([2]; spleen) was 22.4 and the “ratio SUVmax to background, mean” value ([2]; spleen) was 11.4. The “ratio SUVmax to background, min” value ([2]; spleen) was 3.6, the “ratio SUVmean to background, max” value ([2]; spleen) was 28.6 and the “ratio SUVmean to background, mean” value ([2]; spleen) was 13.3. The “ratio SUVmean to background, min” value ([2]; spleen) was 3.9, the “ratio SUVmax to background, max” value ([2]; submandibular gland) was 62.1 and the “ratio SUVmax to background, mean” value ([2]; submandibular gland) was 28.2. The “ratio SUVmax to background, min” value ([2]; submandibular gland) was 14.0, the “ratio SUVmean to background, max” value ([2]; submandibular gland) was 62.3 and the “ratio SUVmean to background, mean” value ([2]; submandibular gland) was 30.6. For the same molecule, the “ratio SUVmean to background, min” value ([2]; submandibular gland) was 15.7, the “ratio SUVmax to background, max” value ([2]; tumor lesions) was 321.2 and the “ratio SUVmax to background, mean” value ([2]; tumor lesions) was 43.6. For the same molecule, the “ratio SUVmax to background, min” value ([2]; tumor lesions) was 1.7, the “ratio SUVmean to background, max” value ([2]; tumor lesions) was 356.4 and the “ratio SUVmean to background, mean” value ([2]; tumor lesions) was 50.8. The “ratio SUVmean to background, min” value ([2]; tumor lesions) was 1.8.
For “[^19F][^natGa]D/L-Dap-R/S-DOTAGA-rhPSMA7 [rhPSMA7-rac]”, the “HSA Binding” value (HSA) was 96.7%, the “Effective Dose” value ([1]; 1.0 h bladder voiding interval) was 1.22E−02 mSv/MBq and the “Effective Dose Equivalent” value ([1]; 1.0 h bladder voiding interval) was 1.82E−02 mSv/MBq. The “Effective Dose” value ([1]; […] bladder voiding interval) was 2.66E−02 mSv/MBq, the “Effective Dose Equivalent” value ([1]; […] bladder voiding interval) was 3.56E−02 mSv/MBq and the “SUVmax mean, bladder” value [2] was 8.5. For the same molecule, the “SUVmax mean, bloodpool” value [2] was 2.4, the “SUVmax mean, bone” value [2] was 1.7 and the “SUVmax mean, duodenum” value [2] was 14.8. The “SUVmax mean, kidney” value [2] was 44.8, the “SUVmax mean, liver” value [2] was 9.5 and the “SUVmax mean, lungs” value [2] was 1.1. For the same molecule, the “SUVmax mean, pancreas” value [2] was 3.7, the “SUVmax mean, parotic gland” value [2] was 23.8 and the “SUVmax mean, spleen” value [2] was 11.8. The “SUVmax mean, submandibular gland” value [2] was 27.0, the “SUVmean mean, bloodpool” value [2] was 2.0 and the “SUVmean mean, duodenum” value [2] was 10.9. The “SUVmean mean, kidney” value [2] was 32.4, the “SUVmean mean, liver” value [2] was 7.0 and the “SUVmean mean, lungs” value [2] was 0.7. The “SUVmean mean, pancreas” value [2] was 2.5, the “SUVmean mean, parotic gland” value [2] was 16.9 and the “SUVmean mean, spleen” value [2] was 9.1. For the same molecule, the “SUVmean mean, submandibular gland” value [2] was 19.6, the “SUVmax mean, background” value [2] was 1.0 and the “SUVmean mean, background” value [2] was 0.6. For the same molecule, the “SUVmean mean, bladder” value ([2]; listed as 18F-rhPSMA-7) was 6.3, the “SUVmean mean, bone” value [2] was 1.1 and the “SUVmax mean, tumor” value ([2]; tumor lesions) was 27.6. The “SUVmean mean, tumor” value ([2]; tumor lesions, listed as 18F-rhPSMA-7) was 20.0±20.2 and 20.0.
